Data published in US9388233.

Target: I-SceI mutants selected from G13/P14/N15/K20 saturation library (UniProt P03882)
Assay: cell_activity
Conditions: first selection round, library pool; individual mutants not given

Sequence of UniProt P03882 (P03882 whole entry, change not shown): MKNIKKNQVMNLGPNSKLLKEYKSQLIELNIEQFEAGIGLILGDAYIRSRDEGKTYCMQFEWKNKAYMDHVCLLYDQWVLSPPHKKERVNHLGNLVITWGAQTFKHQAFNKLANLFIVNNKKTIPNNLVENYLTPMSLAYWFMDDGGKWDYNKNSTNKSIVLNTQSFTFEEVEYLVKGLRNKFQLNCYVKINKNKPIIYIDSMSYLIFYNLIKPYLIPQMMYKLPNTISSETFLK

TAGGGATAACAGGGGTCT (double strand) [T3i1]
activity (fold cell survival vs wild type): 10
